Data reported in patent US20210371506A1.

Experiments:
Aβ1-42 monomer (human) = test: SPR, Biacore T200; IgG captured on Protein A chip, Aβ1-42 monomer flowed over
Aβ1-42 fibrils (human) = test: SPR, Biacore T200; Aβ1-42 fibrils amine-coupled to CM5 chip, antibody flowed over
Aβ1-42 fibrils (human), sequence (peptide, as listed by the source): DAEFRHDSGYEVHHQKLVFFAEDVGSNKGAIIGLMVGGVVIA

Aβ1-42 monomer (human), sequence (peptide, as listed by the source): as above

Kd (Aβ1-42 monomer (human)): 3200 nM
Kd (Aβ1-42 fibrils (human)): 75.2 nM
Substance: Aducanumab (antibody)
